This is an account of results in patent US9486491 (dated 2016).

Non-standard residues stand in square brackets, D forms with d. No end group written: not given here. Hyp = O=C(O)[C@@H]1C[C@@H](O)CN1

DPP-4, sequence (P27487 29-766): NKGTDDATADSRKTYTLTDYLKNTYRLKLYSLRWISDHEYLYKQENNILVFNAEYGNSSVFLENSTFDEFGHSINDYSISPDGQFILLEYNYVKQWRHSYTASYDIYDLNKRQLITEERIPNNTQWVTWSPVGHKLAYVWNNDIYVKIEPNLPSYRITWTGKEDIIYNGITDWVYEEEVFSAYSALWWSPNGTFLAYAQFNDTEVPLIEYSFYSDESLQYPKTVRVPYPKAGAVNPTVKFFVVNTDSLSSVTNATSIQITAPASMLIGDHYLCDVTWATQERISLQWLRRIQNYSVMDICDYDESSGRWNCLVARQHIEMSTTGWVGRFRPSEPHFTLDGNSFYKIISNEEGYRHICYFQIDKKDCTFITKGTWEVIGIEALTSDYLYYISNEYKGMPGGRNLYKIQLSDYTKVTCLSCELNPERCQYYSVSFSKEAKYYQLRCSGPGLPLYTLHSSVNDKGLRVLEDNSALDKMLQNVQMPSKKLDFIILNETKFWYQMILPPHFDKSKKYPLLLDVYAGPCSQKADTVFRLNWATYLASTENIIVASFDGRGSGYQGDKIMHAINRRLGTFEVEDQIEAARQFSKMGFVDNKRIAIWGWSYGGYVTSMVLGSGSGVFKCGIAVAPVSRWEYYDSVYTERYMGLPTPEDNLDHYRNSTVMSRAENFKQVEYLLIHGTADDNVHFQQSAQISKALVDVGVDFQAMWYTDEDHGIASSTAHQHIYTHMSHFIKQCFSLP

The experiment concerns the target DPP-4 (UniProt P27487). The experiment can be described thus: other, DPP-4 inhibition.
On to L[Hyp]GPA [LeuHypGlyProAla], for which it took 390 µg/mL to reach half-maximal inhibition (IC50).

In the case of APG [AlaProGly], the IC50 – broadly, the concentration at which inhibition is half-maximal – is 8 µg/mL.

In turn, Ile-[Hyp]-Gly [IleHypGly] registered an IC50 of 150 µg/mL.

In turn, GPV [GlyProVal] came in with an IC50 of 100 µg/mL.

GPIGPV [GlyProIleGlyProVal] displayed an IC50 of 5 µg/mL. Against the preceding molecule, the IC50 is about 20-fold lower.

Regarding GPQ [GlyProGln], 93 µg/mL corresponded to half-maximal inhibition (IC50).

In turn, Ala-[Hyp]-Gly [AlaHypGly] showed a 50% inhibitory concentration (IC50) of 2450 µg/mL.

Turning to GPS [GlyProSer], it took 142 µg/mL to reach half-maximal inhibition (IC50).

Consider LPG [LeuProGly], for which the IC50 was 14 µg/mL.

The molecule Leu-[Hyp]-Gly [LeuHypGly] registered an IC50 of 39 µg/mL.

The molecule GPA [GlyProAla] returned an IC50 of 71 µg/mL.
